Results from US11833164B2, “Methods of treating Fabry disease in patients having a mutation in the GLA gene” (Amicus Therapeutics, Inc., priority 2019, dated 2023).
Positions count from the first letter of the chain named. Names and notes keep the numbering of the source.

B1: A370T (protein)
chain: MQLRNPELHLGCALALRFLALVSWDIPGARALDNGLARTPTMGWLHWERFMCNLDCQEEPDSCISEKLFMEMAELMVSEGWKDAGYEYLCIDDCWMAPQRDSEGRLQADPQRFPHGIRQLANYVHSKGLKLGIYADVGNKTCAGFPGSFGYYDIDAQTFADWGVDLLKFDGCYCDSLENLADGYKHMSLALNRTGRSIVYSCEWPLYMWPFQKPNYTEIRQYCNHWRNFADIDDSWKSIKSILDWTSFNQERIVDVAGPGGWNDPDMLVIGNFGLSWNQQVTQMALWAIMAAPLFMSNDLRHISPQAKALLQDKDVIAINQDPLGKQGYQLRQGDNFEVWERPLSGLAWAVAMINRQEIGGPRSYTIAVTSLGKGVACNPACFITQLLPVKRKLGFYEWTSRLRSHINPTGTVLLQLENTMQMSLKDLL
B2: K374E (protein)
chain: B1 chain with T370A, K374E
B3: V376E (protein)
chain: B1 chain with T370A, V376E
B4: V376L (protein)
chain: B1 chain with T370A, V376L
B5: G375R (protein)
chain: B1 chain with T370A, G375R
B6: G373A (protein)
chain: B1 chain with T370A, G373A
B7: K374T (protein)
chain: B1 chain with T370A, K374T
B8: A370V (protein)
chain: B1 chain with T370V
B9: G373C (protein)
chain: B1 chain with T370A, G373C
B10: S371T (protein)
chain: B1 chain with T370A, S371T
B11: A377G (protein)
chain: B1 chain with T370A, A377G
B12: K374I (protein)
chain: B1 chain with T370A, K374I
B13: S371C (protein)
chain: B1 chain with T370A, S371C
B14: A377P (protein)
chain: B1 chain with T370A, A377P
B15: V376M (protein)
chain: B1 chain with T370A, V376M
B16: A377S (protein)
chain: B1 chain with T370A, A377S
B17: V376G (protein)
chain: B1 chain with T370A, V376G
B18: K374R (protein)
chain: B1 chain with T370A, K374R

What was measured:
[1] = tested on: active site of wild-type α-Gal A and specific mutant forms of α-Gal A; details: selective and reversible binding; cited from earlier work
[2] = tested on: mutant form of α-Gal A expressed in HEK-293 cells; experiment: HEK assay (GLP HEK / Migalastat Amenability Assay): α-Gal A activity in lysates of transiently transfected HEK-293 cells incubated with or without 10 μM migalastat; type: cell-based, human; details: for Absolute increase (% WT) / Relative increase: 10 μM migalastat versus baseline; for Baseline α-Gal A activity (% WT): absence of migalastat; for Baseline α-Gal A activity (% WT) / 10 μM migalastat α-Gal A activity (% WT): percentage of baseline wild-type α-Gal A activity; for Baseline α-Gal A activity (% WT) / Baseline α-Gal A activity / 10 μM migalastat α-Gal A activity / 10 μM migalastat α-Gal A activity (% WT): mean ± SEM; for Baseline α-Gal A activity / 10 μM migalastat α-Gal A activity: lysates of HEK-293 cells transiently transfected with the mutant form; for Baseline α-Gal A activity: incubated 5 days in absence of migalastat; for 10 μM migalastat α-Gal A activity: incubated 5 days with 10 μM migalastat; for 10 μM migalastat α-Gal A activity (% WT): with 10 μM migalastat
How it was run: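 Activity reported as 4-MU released (nmol/mg/hr), mean±SEM, from lysates of transiently transfected HEK-293 cells expressing mutant α-Gal A, cultured with or without 10 μM migalastat.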

Molecule	binding to the active site of α-Gal A [1]	in vitro response to incubation with migalastat (amenability criteria) ([2]; novel α-Gal A mutations listed in Table 2, HEK-293 lysates, 10 μM migalastat, 5 days)	Absolute increase (% WT) [2]	Relative increase [2]	Baseline α-Gal A activity (% WT) [2]	Baseline α-Gal A activity [2]	10 μM migalastat α-Gal A activity [2]	10 μM migalastat α-Gal A activity (% WT) ([2]; 5 days)
OC[C@H]1NC[C@H](O)[C@@H](O)[C@H]1O [migalastat, (2R,3S,4R,5S)-2-(hydroxymethyl) piperdine-3,4,5-triol, reference compound]	high affinity	met amenability criteria						
B1			17.6 % WT	1.2	79.9 ± 4.3 % WT	25024 ± 1951 nmol/mg/h	30276 ± 2364 nmol/mg/h	97.5 ± 6.1 % WT
B2			14.1 % WT	1.3	49.9 ± 3.6 % WT	19699 ± 1718 nmol/mg/h	24879 ± 2423 nmol/mg/h	64 ± 5.7 % WT
B3			21.9 % WT	1.4	74 ± 4.6 % WT	22992 ± 924 nmol/mg/h	30929 ± 1635 nmol/mg/h	95.9 ± 3.8 % WT
B4			19.9 % WT	1.3	82.4 ± 3.4 % WT	27275 ± 1181 nmol/mg/h	34152 ± 1845 nmol/mg/h	102.3 ± 4.2 % WT
B5			18.7 % WT	1.4	41.7 ± 1.9 % WT	15302 ± 1157 nmol/mg/h	22033 ± 1442 nmol/mg/h	60.4 ± 2.1 % WT
B6			12.4 % WT	1.3	40.8 ± 1.5 % WT	14426 ± 630 nmol/mg/h	18622 ± 1289 nmol/mg/h	53.2 ± 3.7 % WT
B7			30.2 % WT	1.6	46.1 ± 2.8 % WT	16418 ± 1050 nmol/mg/h	26614 ± 1659 nmol/mg/h	76.2 ± 5.7 % WT
B8			20.6 % WT	1.5	40.1 ± 3.1 % WT	15754 ± 1222 nmol/mg/h	24151 ± 1591 nmol/mg/h	60.7 ± 3.5 % WT
B9			8.7 % WT	3.2	4.3 ± 0.2 % WT	1744 ± 92 nmol/mg/h	5543 ± 547 nmol/mg/h	13 ± 0.9 % WT
B10			26.1 % WT	1.3	65 ± 3.3 % WT	27962 ± 2785 nmol/mg/h	37065 ± 2351 nmol/mg/h	91.1 ± 5 % WT
B11			16.1 % WT	1.2	71.6 ± 2.5 % WT	26583 ± 1072 nmol/mg/h	32517 ± 981 nmol/mg/h	87.7 ± 2.3 % WT
B12			21.9 % WT	2.0	22.3 ± 1.3 % WT	8194 ± 506 nmol/mg/h	16076 ± 936 nmol/mg/h	44.2 ± 2.9 % WT
B13			11.1 % WT	1.4	23.5 ± 1.3 % WT	10189 ± 1078 nmol/mg/h	14546 ± 1141 nmol/mg/h	34.7 ± 1.6 % WT
B14			17.2 % WT	1.3	59.4 ± 2.6 % WT	21842 ± 930 nmol/mg/h	28189 ± 1292 nmol/mg/h	76.6 ± 3.5 % WT
B15			20.1 % WT	1.3	79.3 ± 2.7 % WT	27547 ± 1431 nmol/mg/h	34563 ± 1762 nmol/mg/h	99.4 ± 3.2 % WT
B16			13.7 % WT	1.3	48.1 ± 2.3 % WT	17737 ± 860 nmol/mg/h	22793 ± 999 nmol/mg/h	61.8 ± 2.7 % WT
B17			28.9 % WT	1.3	93.9 ± 4.6 % WT	33903 ± 2255 nmol/mg/h	44774 ± 2982 nmol/mg/h	122.9 ± 5.6 % WT
B18			17.9 % WT	1.2	74.3 ± 4.8 % WT	27984 ± 2321 nmol/mg/h	34403 ± 2426 nmol/mg/h	92.2 ± 4.9 % WT
